Columns and labels:
human His6-TWEAK protein = target: T1, human His6-TWEAK protein (Homo sapiens, UniProt O43508); assay: SPR binding of peptides to immobilized His6-TWEAK; conditions: for binding affinity for immobilized TWEAK: negative controls, global curve fit not attempted
T1 construct: purchased R&D Systems
T1 sequence (O43508 97-249 limits assumed): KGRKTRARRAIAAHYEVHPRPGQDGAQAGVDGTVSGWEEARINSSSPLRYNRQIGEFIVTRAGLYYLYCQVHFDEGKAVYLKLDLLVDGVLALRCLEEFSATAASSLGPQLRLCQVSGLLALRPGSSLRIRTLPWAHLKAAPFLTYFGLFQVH
Excerpt: SPR biosensor interaction analysis, a label-free screening approach, was used for real-time monitoring of the kinetics and affinity of peptide hits to TWEAK previously identified by cell-based screening. Peptides from pools 1 and 5 were selected both as positive (49, 30, 35 and 43) and negative hits (1 and 42). For our purposes, TWEAK was chosen as ligand, while peptides were chosen as analytes and passed across ligand-derivatized surface. Nitrilotriacetic acid-coated sensor chips (NTA chip) and a coupling approach that results in the capture of a His6-protein in a non-random orientation by the His6 epitope prior to direct free amine-based covalent coupling was used for histidine-tagged TWEAK immobilization.
After chip validation, peptides selected on our cell-based microarray screening were tested.
For each titration, a zero-analyte surface as a control was subtracted from test sensorgram as well as non-specific binding to the blank flow cell without protein; and the chip surface was regenerated in order to remove any remaining analyte. The black curves show the experimental data, while the overlaid red lines represent a global fit of the entire data set to a 1:1 Langmurian interaction model. The fitting process provided both kinetic association and dissociation rate constants (Ka and Kd), as well as equilibrium dissociation constant (KD) values indicated in Figure 6.
Binding assays were performed at 25 °C in a Biacore 3000 instrument (GE Healthcare, Uppsala, Sweden) using nitrilotriacetic (NTA) sensor chips (GE Healthcare) and HBS-EP (0.01 M HEPES pH 7.4, 0.15 M NaCl, 3 mM EDTA, 0.005 % v/v Surfactant P20) as running buffer. Histidine-tagged human TWEAK (His6-TWEAK) protein (R&D Systems, Minneapolis, MN, USA) was covalently immobilized on the sensor surface using a capture coupling method. Briefly, the NTA surface was first stabilized by injection of regeneration buffer (20 μL EDTA-containing running buffer at 20 μL/min) followed by Ni^2+ binding to the surface (40 μL of 500 μM NiCl2 in running buffer at 20 μL/min). The carboxymethyl dextran surface was then activated for primary amine coupling by injecting coupling solution (30 μL of a 1:1 N-hydroxysuccinimide (NHS)/1-ethyl-3-[3-(dimethylamino)-propyl]carbodiimide hydrochloride (EDC) mixture at 5 μL/min). His6-TWEAK protein in pH 7.4 running buffer was then injected over the surface (60 μL of 10 μg/mL His6-TWEAK at 5 μL/min). To block uncoupled primary amines on the sensor surface, ethanolamine was passed over the surface (35 μL 1M ethanolamine at 5 μL/min). Ligand surfaces were finally conditioned with a 20 µL injection of regeneration solution containing 350 mM EDTA at 20 μL/min. Immobilization levels ranged from 1500 to 7000 resonance units (RUimmob) to test different ligand densities. A blank flow cell on the chip was created by simple injection of 20 μL of regeneration buffer injected over the sensor surface.
Binding experiments using a monoclonal anti-TWEAK antibody (Abcam ref. 199405, Cambridge, UK) were run to ascertain adequate functionalization of the immobilized surface. Selected synthetic TWEAK-Fn14 inhibitory peptides at two-fold serial dilutions from 800 µM to 0 µM in running buffer were flown over the chip for 5 min at 35 µL/min. The dissociation phase was monitored for 10 min at the same flow rate and followed by a regeneration step with 10 µL of 18 mM NaOH. Specific binding responses for each channel were obtained by double referencing; subtracting non-specific binding to the blank flow cell plus an internal reference standard, namely buffer injection response. Each sample was run in triplicate. The experimental data were fitted to a 1:1 Langmuir binding model by the BIAevaluation software version 4.1 (GE Healthcare, Uppsala, Sweden).

[1] = tested on: 435-Br1 cells, TNFR2F12A gene expression; assay: Fn14 gene expression with TWEAK, 435-Br1 (RT-PCR); format: cell-based, human; conditions: for Normalized level of expression of Fn14 gene: 435-Br1, TWEAK 25 ng/ml
Protocol: (§1) Figure 1 Characterization TWEAK-dependent/not dependent cells. (A) Representative images of Fn14 expression (pink) in BRV5, 435-P and HT29 cells labelled by immunofluorescence. The protein has similar expression in BRV5 and the positive control HT29 cells, and less expressed in 435-P. DAPI (blue) was used for nucleus identification. (B) RT-PCR analysis to quantify Fn14 gene expression of cells cultured in the presence (dark green) or absence (light green) of TWEAK (25 ng/mL) at 48 h. Up-regulation of Fn14 is observed only in HT29 and BRV5 cells. Bars and error bars represent the average and standard deviation as calculated from three replicates respectively. P values represented as: * - significant (Pvalue: 0.01 to 0.05) and **- very-significant (Pvalue: 0.001 to 0.01).
(§2) Since the transcriptional activation of Fn14 expression can be induced in cancer cells by the TWEAK-Fn14 interaction, either in a paracrine or autocrine manner, we investigated whether TWEAK transactivates Fn14 (TNFR2F12A) in BRV5 brain metastatic cells. We primed cells with TWEAK and analysed TNFR2F12A gene expression including in the analysis 435-Br1 cells, the first generation of brain metastatic cells BRV5.
(§3) Three different cell lines were used in this study: BRV5, MDA-MB 435 (435-P), and HT29. The BRV5 is a highly metastatic brain cell line, obtained in one of our laboratories by primary culture from a brain of a nude mouse inoculated with human 435-Br1 brain metastatic cells, as previously described and used as a model to test the peptides in cell cultures. […] The triple negative 435-P cell line is a useful human breast cancer model that expresses both epithelial and melanocytic markers, and was included as the parental cell from which 435-Br1 metastatic variant was initially originated (both cell lines kindly provided by Dr Fabra at IDIBELL Institute, Hospitalet de Llobregat, Spain). Finally, HT29 human colon carcinoma cells obtained from the European Type Culture Collection (ECACC 91072201) were used as a positive control of TWEAK dependent Fn14 over-expressing cells to evaluate TWEAK-Fn14 axis of brain metastatic variants.

[2] = tested on: HT29 cells, NIK expression; assay: Time-course RT-PCR of NIK (MAP4K4), HT29; format: cell-based, human; conditions: TWEAK, 6 to 24 h
[3] = tested on: HT29 cells, Fn14 gene expression; assay: Fn14 gene expression with TWEAK, HT29 (RT-PCR); format: cell-based, human; conditions: HT29, TWEAK 25 ng/ml
Protocol: as §1, §2
as §3, with “Finally, HT29 human colon carcinoma cells obtained from the European Type Culture Collection (ECACC 91072201) were used as a positive control of TWEAK dependent Fn14 over-expressing cells to evaluate TWEAK-Fn14 axis of brain metastatic variants.” left out

[4] = 25 °C, HBS-EP pH 7.4, Biacore 3000, NTA chip, 1:1 Langmuir global fit, representative of at least three independent experiments

Molecule: 1: GNGTDDNSGTSY [Peptide 1]
- binding affinity for immobilized TWEAK (human His6-TWEAK protein): negligible binding affinity

Molecule: SWYDHMAGDSSY [Peptide 35]
- ka (human His6-TWEAK protein; [4]): 2.06 M⁻¹ s⁻¹
- kd (human His6-TWEAK protein; [4]): 0.00285 s⁻¹

Molecule: 42: YNGHVKDD [Peptide 42]
- binding affinity for immobilized TWEAK (human His6-TWEAK protein): negligible binding affinity

B1: tumour necrosis factor-like weak inducer of apoptosis (protein, UniProt O43508 94-249, looked up)
Tumor necrosis factor ligand …: SAPKGRKTRARRAIAAHYEVHPRPGQDGAQAGVDGTVSGWEEARINSSSPLRYNRQIGEFIVTRAGLYYLYCQVHFDEGKAVYLKLDLLVDGVLALRCLEEFSATAASSLGPQLRLCQVSGLLALRPGSSLRIRTLPWAHLKAAPFLTYFGLFQVH
- Normalized level of expression of Fn14 gene ([1]; technical replicate 1): 0.1600
- Normalized level of expression of Fn14 gene ([1]; technical replicate 2): 0.1676
- Normalized level of expression of Fn14 gene ([1]; technical replicate 3): 0.1719
- TNFR2F12A gene expression ([1]; TWEAK 25 ng/mL, 48 h, 435-Br1): no differences were found
- NIK expression [2]: highest NIK expression, occurred 6 h after
- Normalized level of expression of Fn14 gene ([3]; technical replicate 1): 0.1964
- Normalized level of expression of Fn14 gene ([3]; technical replicate 2): 0.2154
- Normalized level of expression of Fn14 gene ([3]; technical replicate 3): 0.2052

Source: article PMC7866087, “Evaluation of Computationally Designed Peptides against TWEAK, a Cytokine of the Tumour Necrosis Factor Ligand Family” (International Journal of Molecular Sciences, 2021)
